The target of test [1] is transmembrane (tm) human TNF alpha, A1-12 variant, on CHO cells (human, UniProt P01375 1-233). The test can be described thus: cell-based or functional assay.
The target of test [2] is recombinant human (rh) TNF alpha (human, UniProt P01375 77-233, limits assumed). Briefly: cell-based or functional assay.
Test [3] concerns the target T1, recombinant human lymphotoxin α2/β1 (R&D systems, cat. No 679-TX-010/CF) (human, UniProt P01374 35-205; Q06643 49-244, limits assumed).
T1 construct: Bought heterotrimer; also called human lymphotoxin alpha2/beta1
T1 sequence (looked up) 1: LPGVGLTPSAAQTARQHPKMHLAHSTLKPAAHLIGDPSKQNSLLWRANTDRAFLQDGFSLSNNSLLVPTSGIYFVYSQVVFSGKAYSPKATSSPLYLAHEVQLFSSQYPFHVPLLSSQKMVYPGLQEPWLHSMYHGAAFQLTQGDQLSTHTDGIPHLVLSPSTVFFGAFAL
T1 sequence (looked up) 2: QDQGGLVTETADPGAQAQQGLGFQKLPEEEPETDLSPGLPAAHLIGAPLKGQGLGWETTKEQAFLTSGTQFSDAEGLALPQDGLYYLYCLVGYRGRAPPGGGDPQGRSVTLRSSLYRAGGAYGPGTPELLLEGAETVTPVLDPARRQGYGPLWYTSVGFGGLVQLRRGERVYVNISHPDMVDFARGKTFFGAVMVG
The test can be described thus: direct ELISA, protein coated. On the procedure:
(§1) The cross-reactivity profile of the five selected scFvs to TNF alpha homologs of other species than human beings was assessed using ELISA. The following recombinantly expressed TNF alpha proteins were investigated: rhesus macaque (R&D Systems, USA, cat. no. 1070-RM-025/CF), cynomolgus monkey (Sinobiological, cat.no. 90018 CNAE), canine (Kingfisher Biotech, USA, cat. no. RP0261D-025) and feline (R&D systems, cat. No, 2586FTCF), rabbit (Kingfisher, cat. no RPO429U), rat (Peprotech, cat. no 400-14) murine (Peprotech, cat. no 315-01A), guinea pig (R&D Systems, cat. no 5035-TG-025/CF), porcine (R&D Systems, cat. no 690-PT-025/CF). Briefly, proteins were coated at a concentration of 2 mcg/mL over night at 4° C. on Maxisorp 96-well microplates in PBS pH 7.2. After blocking with 5% non-fat dry milk, increasing concentrations of scFv (0.1, 0.3 and 1.0 mcg/mL) were added to the wells. Successful coating of every protein was separately confirmed with TNF alpha-specific control antibodies. Whereas scFv1 was detected by Protein L-HRP (Sigma-Aldrich, USA, cat. no. P3226), the full-length IgG control antibodies were detected by either Streptavidin-HRP (BD Pharmingen, USA, cat. no. 554060) or other eligible secondary antibodies labelled with HRP. The ELISA was developed with BM Blue POD substrate (Roche Applied Science) and the absorbance was measured at 450 nm. The cross-reactivity of scFvs 1-5 was compared to the scFv DLX2481. […] The scFv DLX2481 recognized only recombinant human TNF alpha. In addition, the cross-reactivity of scFv1 to TNF family members was measured by a direct ELISA with coated recombinant human lymphotoxin α2/β1 (R&D systems, USA, cat. No 679-TX-010/CF), recombinant human lymphotoxin α2/β1 (R&D systems, cat. No 678-LY-010/CF), recombinant human CD40 ligand/TNFSF5 (R&D systems, cat. No. 6420-CL-025/CF) and recombinant human TNF beta/TNFSF1 (R&D systems, cat.
(ELISA stands for enzyme-linked immunosorbent assay.)

Test [4] has as its target T2, recombinant human lymphotoxin α2/β1 (R&D systems, cat. No 678-LY-010/CF) (human, UniProt P01374 35-205; Q06643 49-244, limits assumed).
T2 construct: This second one is probably α1/β2, so copy numbers are left open; also called second lymphotoxin preparation
T2 sequence (looked up) 1: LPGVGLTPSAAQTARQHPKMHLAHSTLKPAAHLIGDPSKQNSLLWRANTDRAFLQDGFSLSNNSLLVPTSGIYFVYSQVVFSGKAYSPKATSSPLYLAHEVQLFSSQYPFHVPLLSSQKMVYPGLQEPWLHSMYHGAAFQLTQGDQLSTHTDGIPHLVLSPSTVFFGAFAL
T2 sequence (looked up) 2: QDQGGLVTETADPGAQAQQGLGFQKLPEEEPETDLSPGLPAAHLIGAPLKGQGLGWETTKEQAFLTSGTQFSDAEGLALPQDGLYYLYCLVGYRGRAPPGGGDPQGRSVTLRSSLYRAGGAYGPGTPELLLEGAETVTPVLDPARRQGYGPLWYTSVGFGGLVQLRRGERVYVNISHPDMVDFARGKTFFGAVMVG
Briefly: direct ELISA, protein coated. As to the method:
as §1

The target in test [5] is T3, recombinant human CD40 ligand/TNFSF5 (human, UniProt P29965 108-261, limits assumed).
T3 construct: Bought protein; also called R&D systems cat; No. 6420-CL-025/CF
T3 sequence (looked up): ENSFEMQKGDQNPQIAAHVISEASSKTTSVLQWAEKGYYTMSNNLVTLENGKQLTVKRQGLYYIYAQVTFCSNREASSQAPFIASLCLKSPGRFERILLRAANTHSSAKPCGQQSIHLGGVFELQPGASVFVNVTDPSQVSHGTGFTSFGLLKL
The test can be described thus: direct ELISA, protein coated. On the procedure:
as §1

Test [6] deals with T4, recombinant human TNF beta/TNFSF1 (human, UniProt P01374 35-205, limits assumed).
T4 construct: Bought protein; also called R&D systems cat; No. 211-TB-010/CF
T4 sequence (looked up): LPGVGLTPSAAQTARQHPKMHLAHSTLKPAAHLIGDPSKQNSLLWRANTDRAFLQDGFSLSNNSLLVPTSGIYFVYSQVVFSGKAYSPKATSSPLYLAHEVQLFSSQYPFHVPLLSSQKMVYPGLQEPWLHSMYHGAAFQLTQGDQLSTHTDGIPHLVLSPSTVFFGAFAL
The test can be described thus: direct ELISA, protein coated. As to the method:
as §1

Test [7] concerns the target T5, rhesus macaque TNF alpha (rhesus macaque, UniProt P48094 77-233).
T5 construct: Bought protein; also called R&D Systems cat. no; 1070-RM-025/CF
The test can be described thus: ELISA, TNF alpha protein coated, Protein L-HRP detection. On the procedure: as §1

Test [8] has as its target T6, cynomolgus monkey TNF alpha (cynomolgus monkey, UniProt P79337 77-233).
T6 construct: Bought protein; also called Sinobiological cat. no; 90018 CNAE
The description is as above. As to the method: as §1

In test [9] the target is T7, canine TNF alpha (canine, UniProt P51742 77-233).
T7 construct: Bought protein; also called dog TNF alpha; Kingfisher Biotech cat. no; RP0261D-025
The test is described as above. On the procedure: as §1

For test [10], the target named is T8, feline TNF alpha (feline, UniProt P19101 77-233).
T8 construct: Bought protein; also called R&D systems cat; No 2586FTCF
The description is as above. As to the method:
as §1

Chain of recombinant human (rh) TNF alpha (P01375 77-233 limits assumed): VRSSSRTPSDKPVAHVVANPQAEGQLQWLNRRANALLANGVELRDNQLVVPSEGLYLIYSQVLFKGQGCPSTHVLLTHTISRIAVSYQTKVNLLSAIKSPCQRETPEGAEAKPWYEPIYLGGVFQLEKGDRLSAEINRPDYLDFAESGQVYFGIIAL
Chain of transmembrane (tm) human TNF alpha, A1-12 variant, on CHO cells (P01375 other isoform, or with tags, fused parts or gaps mutant limits assumed): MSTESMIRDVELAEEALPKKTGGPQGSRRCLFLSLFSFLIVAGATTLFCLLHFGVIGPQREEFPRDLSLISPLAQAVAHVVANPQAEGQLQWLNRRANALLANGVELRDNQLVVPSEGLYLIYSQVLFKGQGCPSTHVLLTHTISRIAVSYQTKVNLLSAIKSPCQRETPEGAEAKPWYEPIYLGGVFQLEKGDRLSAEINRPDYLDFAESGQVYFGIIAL
T6 sequence (P79337 77-233 limits assumed): as the sequence (P01375 77-233 limits assumed) above, with L37V, R44T, T72N, R138L counted along it
T7 sequence (P51742 77-233 limits assumed): as the sequence (P01375 77-233 limits assumed) above, with R2K, Q21E, N30S, R44T, V49I, E53D, I83F, A109T, R138L, D140N counted along it
T5 sequence (P48094 77-233 limits assumed): as the sequence (P01375 77-233 limits assumed) above, with R44T, T72N, R138L counted along it
T8 sequence (P19101 77-233 limits assumed): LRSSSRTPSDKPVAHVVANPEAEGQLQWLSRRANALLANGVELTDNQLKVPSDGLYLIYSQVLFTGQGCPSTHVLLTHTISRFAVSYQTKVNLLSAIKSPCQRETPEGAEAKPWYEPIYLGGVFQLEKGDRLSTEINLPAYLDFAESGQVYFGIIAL

B1: positive control scFv DLX105 (scFv)
scFv: MADIVMTQSPSSLSASVGDRVTLTCTASQSVSNDVVWYQQRPGKAPKLLIYSAFNRYTGVPSRFSGRGYGTDFTLTISSLQPEDVAVYYCQQDYNSPRTFGQGTKLEVKRGGGGSGGGGSGGGGSSGGGSQVQLVQSGAEVKKPGASVKVSCTASGYTFTHYGMNWVRQAPGKGLEWMGWINTYTGEPTYADKFKDRFTFSLETSASTVYMELTSLTSDDTAVYYCARERGDAMDYWGQGTLVTVSS
Consider B1, for which the “IC50, inhibition of tmTNF alpha activity on HEK-Dual TNF alpha-sensitive reporter cells (luciferase)” value in test [1] was 32 nM. Further, in test [2], the “IC50, inhibition of rhTNF alpha (1.4 pM) cytotoxicity on PK-15 cells” value was determined as 260 pM.

B2: scFv1 (scFv)
scFv: EIVMTQSPSTLSASVGDRVIITCQASQSISSYLAWYQQKPGKAPKLLIYWASTLASGVPSRFSGSGSGTEFTLTISSLQPDDFATYYCQSYYYTSNNSDGFWAFGQGTKLTVLGGGGGSGGGGSGGGGSGGGGSEVQLVESGGGLVQPGGSLRLSCKASGIDFSNSGITWVRQAPGKGLEWVGYIYPGFGIRNYANSVRGRFTISRDTSKNTVYLQMNSLRAEDTAVYYCARDPIYASSSGYADIWGQGTLVTVSS
With B2, in test [1], the “IC50, inhibition of tmTNF alpha activity on HEK-Dual TNF alpha-sensitive reporter cells (luciferase)” value worked out at 50 nM. The “IC50, inhibition of rhTNF alpha (1.4 pM) cytotoxicity on PK-15 cells” value in [2] came to 30 pM. Also, the binding result in test [3] was “no binding (tested: 40 nM)”; in [4], “no binding (tested: 40 nM)”; in test [5], “no binding (tested: 40 nM)”; in test [6] it was “no binding (tested: 40 nM)”; in [7], “binds”; in [8] it was “binds”. Moreover, the binding result in [9] and in test [10] was “binds” in each case.

The values are drawn from patent US20170107282A1 (CELL MEDICA SWITZERLAND, published 2017).
